Experimental findings from patent US20220308062A1, “METHODS FOR PREDICTING DRUG RESPONSIVENESS IN SAMPLES FROM CANCER SUBJECTS” (Board of Regents, The University of Texas System, priority 2019, published 2022) are described below.

Type in all cases: cell-based, human
For test [1], the system named is patient-derived organoids (PDOs). Nature of the test: Patient-derived organoid CellTiter-Glo cell viability. The following applies: Homo sapiens, 72 h; read-out: reduction in cell viability. The protocol:
Patient-derived organoids (PDOs). Tumor tissues were minced on ice into 1 mm^3 small pieces. Tumor pieces (˜20 μl in volume) were resuspended in 200 μl Matrigel and seeded into 24 well plates for 15 min until gel solidify, followed by culture in advanced DMEM/F12 medium supplemented with B27 and N2 (Thermo Fisher Scientific), 0.01% BSA (Roche), 100 units/m penicillin-streptomycin (Thermo Fisher Scientific), and others (Table 4) for 4-8 weeks to grow organoids. […] The CellTiter-Glo Luminescent Cell Viability assay was used to determine drug responsiveness.
A general note: ATP-based viability assays read luminescence as a measure of living cells.

Another test has as its system PMA-stimulated U937. Nature of the test: Immunofluorescence of IL-11 treated U937. The following applies: 25 ng/ml, 72 hr. The protocol: Immunofluorescence. PMA-stimulated U937 were cultured and treated with 25 ng/ml IL-11 over 72 hr. Cells were then fixed with 4% paraformaldehyde for 15 minutes. After fixation, cells were incubated with fluorescence conjugated primary antibody (CD14, CD86 and CD163) for 1 hour. Slides were mounted with mounting medium with DAPI and the images were taken with fluorescence microscope.

Test [2] relates to PMA-stimulated U937 and THP-1. Nature of the test: Western blot of IL-11 treated macrophages. Conditions: serial dosages, 72 hr. How it is done:
Western blot analysis. PMA-stimulated U937 and THP-1 were cultured and treated with serial dosages of IL-11 over 72 hr. Cell lysates were harvested using RIPA buffer. The concentration of protein lysates was determined by Pierce™ BCA Protein Assay Kit (Thermo fisher). Forty micrograms of the total protein extracts were separated by NuPAGE™ 4-12% Bis-Tris Protein Gels (Thermo fisher) and transferred to PVDF membrane. The membranes were then blocked with 5% of Blotting-Grade Blocker (BioRad) in TBST and probed using primary antibodies against pSTAT3, STAT3 and GAPDH (Cell Signaling Technology; 2118S). Membranes were incubated in HRP-linked secondary antibodies following dilution with TBST (1:5000) at room temperature for one hour. Blots were developed using Western Lightning Plus-ECL Chemiluminescent Reagents (Perkin Elmer, Waltham, Mass.) and Syngene G:BOX Imaging System.

For `N#CC[C@H](C1CCCC1)n1cc(-c2ncnc3[nH]ccc23)cn1` [ruxolitinib], in test [1], the cytotoxicity at 15 µM lay in the range of 10 to 20%.

B1: IL-11: cytokine, a member of the IL-6 cytokine family, used to treat PMA-stimulated U937 and THP-1 macrophages (protein, UniProt P20809 22-199, looked up)
Interleukin-11: PGPPPGPPRVSPDPRAELDSTVLLTRSLLADTRQLAAQLRDKFPADGDHNLDSLPTLAMSAGALGALQLPGVLTRLRADLLSYLRHVQWLRRAGGSSLKTLEPELGTLQARLDRLLRRLQLLMSRLALPQPPPDPPAPPLAPPSSAWGGIRAAHAILGGLHLTLDWAVRGLLLLKTRL
B1: the “CD163 (immunofluorescence)” value with PMA-stimulated U937 is given as “up-regulated”. Besides, the “pSTAT3 (western blot)” value in test [2] is on record as “up-regulated”.
